The target of assay [1] is T1, wild type 11-cis retinol dehydrogenase (Homo sapiens, UniProt Q92781).
T1 construct: expressed in transfected cells; host or cells: COS-1 cells (microsomes), vector pSG5
T1 sequence (Q92781 1-318): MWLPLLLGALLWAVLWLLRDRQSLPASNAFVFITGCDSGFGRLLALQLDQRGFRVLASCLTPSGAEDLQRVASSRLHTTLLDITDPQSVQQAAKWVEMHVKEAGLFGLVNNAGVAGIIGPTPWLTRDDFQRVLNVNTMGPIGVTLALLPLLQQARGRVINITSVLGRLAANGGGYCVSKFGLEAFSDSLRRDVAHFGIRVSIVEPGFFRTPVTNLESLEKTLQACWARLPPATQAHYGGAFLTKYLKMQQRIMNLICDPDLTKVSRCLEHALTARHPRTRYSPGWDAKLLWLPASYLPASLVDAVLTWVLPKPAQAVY
The assay can be described thus: Km and Vmax of wild type enzyme, oxidation of 11-cis retinol to 11-cis retinal by microsomes, HPLC. In kind it is biochemical. To be noted: 2 μg microsomal protein, 8-minute incubations, 5 mM NAD, 37° C., Lineweaver-Burk, average of duplicates 7.1 and 9.6. How it is done: To monitor the ability of the wild-type and mutant enzymes to catalyze the oxidation of 11-cis retinol to 11-cis retinal, 11-cis retinol, which had been synthesized by reduction of 11-cis retinal with NaBH4 and stored under argon at −80° C., was added to reaction mixtures containing microsomes from the transfected cells.
The enzyme reactions, in a total volume of 100 μp were carried out in 50 mM Tris-HCl buffer pH7.5 containing 5 mM NAD or NADH, […] 11-cis retinol, or 11-cis retinal, and microsomes at 37° C. All manipulations of retinoids were performed in dim light. The reactions were stopped by putting the tubes on ice, and the retinoids were immediately extracted with 200 μl n-hexane. Subsequently, 75 μl aliquots were analyzed by reverse-phase HPLC using a C18 column. The mobile phase was acetonitrile/water (85/15, v/v), and the column was eluted under isocratic conditions at a flow rate of 1 ml/min. 11-cis retinol and 11-cis retinal eluted at 12.0-12.2 and 14.0-14.3 minutes, respectively. Retinoids were quantified at 320 and 370 nm. […] Formed 11-cis retinal was quantified in the HPLC analyses, and the Km and Vmax values were calculated from Lineweaver-Burk plots. The values were compensated for the extraction efficiency (60-70%, as determined experimentally).

In assay [2] the test system is 11-cis retinol dehydrogenase (RDH5). The assay can be described thus: Relative activities of wild type and mutant enzymes, oxidation of 11-cis retinol (forward reaction), microsomes, HPLC. In kind it is biochemical, human. To be noted: for ability to catalyze oxidation of 11-cis-retinol to 11-cis-retinal: 10 minutes at 37° C., 5 mM NAD, 50 μM 11-cis-retinol, mutant 20 μg, wild type 2 μg microsomes; for fold activity above background activity (mock transformants) / fold less activity than wild type enzyme: after 40 minutes incubation. The procedure: (§1) The relative activities of the wild type and mutant enzymes were then determined. To do this, microsomes containing a mutant enzyme (20 μg), or wild type enzyme(2 μg) together with 18 μg of microsomal protein from mock-transfected cells, to standardize the experimental conditions, or no enzyme were combined with 50 mM Tris-HCl buffer (pH 7.5), containing 5 mM of NAD, and 50 μM 11-cis-retinol (forward, oxidation reaction) or 5 mM NADH and 50 μM 11-cis-retinal (reverse, reduction reaction) in a total volume of 100 μl. 50 μM 11-cis retinol is approximately a seven-fold higher substrate concentration than the estimated Km value for the wild-type enzyme. The mixtures were incubated for 10 minutes at 37° C., after which the reactions were stopped by putting the mixtures on ice. Retinoids were extracted immediately with 200 μl of n-hexane. Subsequently, 75 μl aliquots were analyzed via reversed phase HPLC using a C18 column. The mobile phase was acetonitrile/water (85:15 v/v), and the column was eluted under isocratic conditions at a flow rate of 1 ml/min. The 11-cis-retinol eluted at 12.0-12.2 minutes, and 11-cis-retinal at 14.0-14.3 minutes. Retinoids were quantified at 320 (retinol) and 370 (retinal) nm. Relative activities of wild-type and mutant enzymes were calculated as the ratio of formed 11-cis retinal by transfected versus mock-transfected microsomes. The results were normalized for the total extracted retinoid content from each reaction.
The Gly238Trp mutant was tested further, to determine if it had any activity, by incubating for 20 and 40 minute periods before extracting retinoids. Wild type and Ser73Phe mutant were used as controls.

In assay [3] the target is T2, 11-cis retinol dehydrogenase (RDH5) (Homo sapiens, UniProt Q92781).
T2 construct: expressed in transfected cells; host or cells: COS-1 cells (microsomes), vector pSG5
T2 sequence (Q92781 1-318): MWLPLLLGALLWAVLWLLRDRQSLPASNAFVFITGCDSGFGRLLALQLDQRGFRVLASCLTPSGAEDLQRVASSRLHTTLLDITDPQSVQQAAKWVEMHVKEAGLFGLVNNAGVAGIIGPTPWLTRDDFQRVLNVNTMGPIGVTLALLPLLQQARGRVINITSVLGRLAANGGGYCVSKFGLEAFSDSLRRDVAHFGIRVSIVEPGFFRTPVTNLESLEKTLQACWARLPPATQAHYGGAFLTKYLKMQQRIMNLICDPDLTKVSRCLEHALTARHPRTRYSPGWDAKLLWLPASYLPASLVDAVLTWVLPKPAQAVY
The assay can be described thus: Relative activities of wild type and mutant enzymes, reduction of 11-cis retinal (reverse reaction), microsomes, HPLC. In kind it is biochemical. To be noted: 10 minutes at 37° C., 5 mM NADH, 50 μM 11-cis-retinal. The procedure: as §1, with “The results were normalized for the total extracted retinoid content from each reaction.” left out

Consider `CC1=C(/C=C/C(C)=C/C=C\C(C)=C\CO)C(C)(C)CCC1` [11-cis retinol], for which the Vmax in assay [1] is reported as 8.4 nmol/mg protein/minute.

B1: wild type enzyme: wild type human 11-cis retinol dehydrogenase (RDH5) expressed in COS-1 cells (protein, UniProt Q92781 1-318, looked up)
Retinol dehydrogenase 5: MWLPLLLGALLWAVLWLLRDRQSLPASNAFVFITGCDSGFGRLLALQLDQRGFRVLASCLTPSGAEDLQRVASSRLHTTLLDITDPQSVQQAAKWVEMHVKEAGLFGLVNNAGVAGIIGPTPWLTRDDFQRVLNVNTMGPIGVTLALLPLLQQARGRVINITSVLGRLAANGGGYCVSKFGLEAFSDSLRRDVAHFGIRVSIVEPGFFRTPVTNLESLEKTLQACWARLPPATQAHYGGAFLTKYLKMQQRIMNLICDPDLTKVSRCLEHALTARHPRTRYSPGWDAKLLWLPASYLPASLVDAVLTWVLPKPAQAVY
On to B1, for which, in assay [2], the “ability to catalyze oxidation of 11-cis-retinol to 11-cis-retinal” value (“ability to catalyze oxidation” for short) was “exhibited the expected ability to catalyze the oxidation” and the “fold activity above background activity (mock transformants)” value (from here on “fold activity above background activity”) worked out at 42.9 ± 4.5 fold. The “ability to catalyze reduction of 11-cis-retinal to 11-cis-retinol (reverse reaction)” value in assay [3] is listed as “catalyzed the reverse reaction”.

B2: Ser73Phe mutant: mutant human 11-cis retinol dehydrogenase (RDH5), Ser to Phe at amino acid 73 (protein, UniProt Q92781 1-318, looked up, variant S73F)
Retinol dehydrogenase 5: MWLPLLLGALLWAVLWLLRDRQSLPASNAFVFITGCDSGFGRLLALQLDQRGFRVLASCLTPSGAEDLQRVAFSRLHTTLLDITDPQSVQQAAKWVEMHVKEAGLFGLVNNAGVAGIIGPTPWLTRDDFQRVLNVNTMGPIGVTLALLPLLQQARGRVINITSVLGRLAANGGGYCVSKFGLEAFSDSLRRDVAHFGIRVSIVEPGFFRTPVTNLESLEKTLQACWARLPPATQAHYGGAFLTKYLKMQQRIMNLICDPDLTKVSRCLEHALTARHPRTRYSPGWDAKLLWLPASYLPASLVDAVLTWVLPKPAQAVY
For the molecule B2, in assay [2], the “ability to catalyze oxidation” value is “residual activity”, the “fold activity above background activity” value is 9.1±1 fold and the “fold less activity than wild type enzyme” value is “approximately 5 fold”.

B3: Gly238Trp mutant: mutant human 11-cis retinol dehydrogenase (RDH5), Gly to Trp at amino acid 238 (protein, UniProt Q92781 1-318, looked up, variant G238W)
Retinol dehydrogenase 5: MWLPLLLGALLWAVLWLLRDRQSLPASNAFVFITGCDSGFGRLLALQLDQRGFRVLASCLTPSGAEDLQRVASSRLHTTLLDITDPQSVQQAAKWVEMHVKEAGLFGLVNNAGVAGIIGPTPWLTRDDFQRVLNVNTMGPIGVTLALLPLLQQARGRVINITSVLGRLAANGGGYCVSKFGLEAFSDSLRRDVAHFGIRVSIVEPGFFRTPVTNLESLEKTLQACWARLPPATQAHYWGAFLTKYLKMQQRIMNLICDPDLTKVSRCLEHALTARHPRTRYSPGWDAKLLWLPASYLPASLVDAVLTWVLPKPAQAVY
Turning to B3, in assay [2], the “ability to catalyze oxidation” value is listed as “no activity above background level”, the “fold activity above background activity” value came out at 2.2±0.14 fold and the “fold less activity than wild type enzyme” value is reported as “approximately 19 fold”.

The record behind these values is US6358728B1, “Mutations in nucleic acid molecules encoding 11-CIS retinol dehydrogenase, the mutated proteins, and uses thereof” (The President & Fellows of Havard College, priority 1999, dated 2002).
